What was measured:
Assay in all cases: EMSA
[1] = test system: LARP1 796-1019 cluster 7 phosphomimetic (Homo sapiens); settings: tRNA and BSA competitors; enhanced relative to WT 796-1019; m7Gppp cap; EMSA: 20 mM Tris-HCl pH 8, 150 mM NaCl, 10% glycerol, 1 mM DTT, 0.5 ug tRNA, 1 ug BSA in 10 ul; on ice 30 min; 7-8% native 0.5x TBE gel at 4 C; RNA <=200 pM
[2] = test system: LARP1 665-947 cluster 6 full phosphomimetic (10 sites) (Homo sapiens); settings: tRNA and BSA competitors; stated 4.99-fold reduction; m7Gppp cap; EMSA: 20 mM Tris-HCl pH 8, 150 mM NaCl, 10% glycerol, 1 mM DTT, 0.5 ug tRNA, 1 ug BSA in …; on ice 30 min; 7-8% native 0.5x TBE gel at 4 C; RNA <=200 pM
[3] = test system: LARP1 665-947 cluster 6 partial phosphomimetic (5 sites) (Homo sapiens); settings: tRNA and BSA competitors; m7Gppp cap; EMSA: 20 mM Tris-HCl pH 8, 150 mM NaCl, 10% glycerol, 1 mM DTT, 0.5 ug tRNA, 1 ug BSA in 10 ul; on ice 30 min; 7-8% native 0.5x TBE gel at 4 C; RNA <=200 pM

m7G-RPS6-UTR (capped RPS6 20-mer)
Kd [1]: 44 nM
Kd [2]: 2840 nM
Kd [3]: 902 nM
